This is an account of results in US20220403041A1 (Sanofi, published 2022).

The target of test [1] is T1, soluble CD73 dimer (human, UniProt P21589 27-549, limits assumed).
T1 construct: CD73 in the flow (SPR) or in solution (BLI binning); also called soluble human CD73
T1 sequence: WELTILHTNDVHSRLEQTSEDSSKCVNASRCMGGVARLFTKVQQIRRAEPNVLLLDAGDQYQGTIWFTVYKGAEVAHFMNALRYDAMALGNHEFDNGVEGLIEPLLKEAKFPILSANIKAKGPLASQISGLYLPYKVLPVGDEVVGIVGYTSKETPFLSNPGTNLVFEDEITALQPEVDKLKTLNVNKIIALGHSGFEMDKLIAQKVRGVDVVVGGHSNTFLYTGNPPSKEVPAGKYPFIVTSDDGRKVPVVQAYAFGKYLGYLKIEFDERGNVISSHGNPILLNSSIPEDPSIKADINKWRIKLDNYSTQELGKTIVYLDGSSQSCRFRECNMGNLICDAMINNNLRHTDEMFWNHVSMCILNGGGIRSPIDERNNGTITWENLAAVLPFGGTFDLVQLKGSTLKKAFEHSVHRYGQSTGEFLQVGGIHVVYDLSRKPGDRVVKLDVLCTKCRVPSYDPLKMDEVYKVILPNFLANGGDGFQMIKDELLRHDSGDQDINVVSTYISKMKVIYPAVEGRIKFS
Kind of test: SPR; KD from Langmuir ka and kd of the principal dissociation component.

For test [2], the target named is T1, soluble CD73 dimer. Put plainly: SPR, antibody captured on chip, CD73 in flow; biphasic fit, share after 300 s binding phase of the component with ka 3.24E+05 1/Ms. (SPR reads the build-up and loss of mass on a sensor chip optically.)
Test [3] addresses T1, soluble CD73 dimer. Kind of test: SPR, antibody captured on Protein A chip, CD73 in flow; biphasic fit, component of abundance 86%.
Test [4] concerns the target T1, soluble CD73 dimer. Kind of test: SPR, antibody captured on Protein A chip, CD73 in flow; biphasic fit, component of abundance 14%.
The target in test [5] is T1, soluble CD73 dimer. Kind of test: SPR, antibody captured on chip, CD73 in flow; biphasic fit, share by T0 intercept of the component with kd 7.86E-05 1/s.
Test [6] concerns the target T1, soluble CD73 dimer. Kind of test: SPR, antibody on the solid support, soluble CD73 dimer in solution.
Test [7] deals with T1, soluble CD73 dimer. Kind of test: SPR, antibody captured on Protein A chip, CD73 in flow; biphasic fit, component of abundance 70%.
Test [8] has as its target T1, soluble CD73 dimer. Put plainly: SPR, antibody captured on Protein A chip, CD73 in flow; biphasic fit, component of abundance 30%.
Test [9] deals with T1, soluble CD73 dimer. Kind of test: SPR, antibody captured on Protein A chip, CD73 in flow; Langmuir ka with major component kd.
Test [10] deals with T1, soluble CD73 dimer. Put plainly: SPR dissociation kinetics.
The target of test [11] is T1, soluble CD73 dimer. Kind of test: SPR, antibody captured on chip, CD73 in flow; biphasic fit, share after 300 s binding phase of the component with ka 1.50E+06 1/Ms.
Test [12] deals with T2, human CD73 on COR-L23 lung carcinoma cells (human) (UniProt P21589).
T2 sequence: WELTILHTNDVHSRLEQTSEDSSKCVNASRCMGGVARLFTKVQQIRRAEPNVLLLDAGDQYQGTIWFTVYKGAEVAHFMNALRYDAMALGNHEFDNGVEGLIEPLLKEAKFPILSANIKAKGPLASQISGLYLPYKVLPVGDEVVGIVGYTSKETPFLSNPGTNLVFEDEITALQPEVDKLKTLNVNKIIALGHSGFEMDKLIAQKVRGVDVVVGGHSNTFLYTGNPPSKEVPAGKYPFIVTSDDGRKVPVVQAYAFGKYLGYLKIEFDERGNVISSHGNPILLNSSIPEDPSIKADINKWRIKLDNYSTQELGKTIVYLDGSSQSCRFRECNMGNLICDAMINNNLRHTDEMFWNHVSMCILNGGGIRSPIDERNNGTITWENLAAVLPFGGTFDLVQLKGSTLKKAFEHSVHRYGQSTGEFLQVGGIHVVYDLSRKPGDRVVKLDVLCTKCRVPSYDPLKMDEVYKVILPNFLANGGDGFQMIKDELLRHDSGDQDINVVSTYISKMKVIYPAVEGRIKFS
Kind of test: cell-based or functional assay.

Test [13] addresses T1, soluble CD73 dimer. Kind of test: SPR, antibody captured on chip, CD73 in flow; biphasic fit, share by T0 intercept of the component with kd 7.06E-03 1/s.
Test [14] concerns the target T1, soluble CD73 dimer. Put plainly: SPR, antibody captured on Protein A chip, CD73 in flow; Langmuir 1:1 fit.
Test [15] has as its target T3, human CD73 on COR-L23 lung carcinoma cells (human, UniProt P21589 27-549).
T3 sequence: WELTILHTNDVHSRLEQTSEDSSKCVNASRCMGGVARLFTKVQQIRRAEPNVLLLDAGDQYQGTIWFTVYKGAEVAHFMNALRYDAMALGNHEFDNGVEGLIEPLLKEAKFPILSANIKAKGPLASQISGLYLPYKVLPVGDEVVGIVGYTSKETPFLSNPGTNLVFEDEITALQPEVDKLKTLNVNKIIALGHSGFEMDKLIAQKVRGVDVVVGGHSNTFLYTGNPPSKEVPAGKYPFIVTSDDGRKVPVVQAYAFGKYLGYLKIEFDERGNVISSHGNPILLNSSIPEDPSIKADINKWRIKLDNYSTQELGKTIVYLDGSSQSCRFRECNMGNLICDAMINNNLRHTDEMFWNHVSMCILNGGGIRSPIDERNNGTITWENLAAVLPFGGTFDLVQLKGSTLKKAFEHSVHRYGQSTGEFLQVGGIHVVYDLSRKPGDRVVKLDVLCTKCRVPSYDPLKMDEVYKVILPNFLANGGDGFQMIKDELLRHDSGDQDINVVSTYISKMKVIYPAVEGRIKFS
Kind of test: cell-based or functional assay.

The target of test [16] is T1, soluble CD73 dimer. Put plainly: SPR, antibody captured on Protein A chip, CD73 in flow; biphasic fit, component of abundance 45%.
Test [17] concerns the target T1, soluble CD73 dimer. Put plainly: SPR, antibody captured on Protein A chip, CD73 in flow; biphasic fit, component of abundance 55%.
For test [18], the target named is T1, soluble CD73 dimer. Put plainly: SPR, antibody captured on chip, CD73 in flow; biphasic fit, share by T0 intercept of the component with kd 2.46E-04 1/s.
Test [19] addresses T2, human CD73 on COR-L23 lung carcinoma cells (human).
In test [20] the target is T1, soluble CD73 dimer. Put plainly: SPR, antibody captured on chip, CD73 in flow; biphasic fit, share after 300 s binding phase of the component with ka 7.03E+05 1/Ms.
For test [21], the target named is T1, soluble CD73 dimer. Put plainly: SPR, antibody captured on Protein A chip, CD73 in flow; biphasic fit, component of abundance 100%.
Test [22] addresses T1, soluble CD73 dimer. Put plainly: SPR, antibody captured on chip, CD73 in flow; biphasic fit, share after 300 s binding phase of the component with ka 5.31E+06 1/Ms.

For orientation: koff means the rate constant with which the complex falls apart. High values mean a short-lived complex, low ones a long-lived complex. One may read the kon as the second-order rate constant of association. Lower therefore signals slower complex formation. A word on the Kd: it is a measure of binding affinity in units of concentration. Read a high Kd as lower affinity.

B1: CL25/TB19 (bispecific antibody, part only; not given: CL25 arm; constant regions, V domains shown, part only)
VH: QEQLQESGPGLVKPSETLSLTCTVSGGSIRNNYYNWIRQPAGKGLEWIGRIYISGTTNSNPSLKSRVTMSIDTSKNQFSLKLSSVTAADTAIYYCAREHYVSGTSLDNWGQGTLVTVSS
VL: EIVMTQSPTTLSLSPGERATLSCRASQSVNTNYFSWYQQKPGLTPRLLIYGTSTRATGIPARFSGSGSGTDFTLTISSLQPEDFGIYYCQQDYNLPYTFGQGTYLEIK
As to B1, the fold increase of apparent affinity (KD) over either monovalent parental antibody in [1] was determined as 26 fold. The abundance of association component (biphasic fit) in [2] was 70%; in test [11], 30%. For the same molecule, the koff in test [3] came out at 7.86e-05 s⁻¹; in test [4] it was 0.00706 s⁻¹; in test [14], 0.00013 s⁻¹. Also, the abundance of dissociation component (biphasic fit) turned out to be 86% in test [5] and 14% in test [13]. Besides, the fold lower KD than either parental antibody in test [6] came out at 15 fold. Besides, the kon in test [7] is 324000 M⁻¹ s⁻¹; in test [8], 1.5e+06 M⁻¹ s⁻¹; in [14] it was 493000 M⁻¹ s⁻¹. The molecule further yielded a Kd in test [9] of 0.16 nM. In addition, in test [10], the fold more stable (kd of the principal component) than with either monovalent parental was 8.8 fold. The molecule also displayed an EC50 (nM) of inhibition of CD73 activity (adenosine by LC/MS) in test [12] of 0.619 nM. This molecule also had a Max Inhib. (projected maximal inhibition at saturating antibody) in test [12] of 97%.

B2: TB19/TB38 (bispecific antibody, V domains shown)
VH 1: QEQLQESGPGLVKPSETLSLTCTVSGGSIRNNYYNWIRQPAGKGLEWIGRIYISGTTNSNPSLKSRVTMSIDTSKNQFSLKLSSVTAADTAIYYCAREHYVSGTSLDNWGQGTLVTVSS
VL 1: EIVMTQSPTTLSLSPGERATLSCRASQSVNTNYFSWYQQKPGLTPRLLIYGTSTRATGIPARFSGSGSGTDFTLTISSLQPEDFGIYYCQQDYNLPYTFGQGTYLEIK
VH 2: QVQLVESGGGVVQPGRSLRLSCAASGFTFSSYGMHWVRQAPGKGLEWVAVFWYDGSNKYYADSVKGRFTISRDNSKNTLYLQMNSLSAEDTAVYYCARAPNWDDAFDIWGQGTMVTVSS
VL 2: QTVVTQEPSFSVSPGGTVTLTCGLSSGSVSTSYYPNWYQQTPGQAPRTLIYSTNTRSSGVPDRFSGSILGNKAALTITGAQADDESDYYCVLFMGSGIWVFGGGTKLTVL
notes: Biparatopic human IgG1 made by Fab-arm exchange; also called TB19/TB38 biparatopic antibody
With B2, the Kd in test [9] came to 0.555 nM. The “EC50 (nM) of inhibition of CD73 activity (adenosine by LC/MS)” value in test [15] was determined as 0.777 nM. Further, in test [14], the koff was 0.000102 s⁻¹ and the kon is 184000 M⁻¹ s⁻¹.

B3: TB19/H7 (bispecific antibody, part only; not given: H7 arm; constant regions, V domains shown, part only)
VH: QEQLQESGPGLVKPSETLSLTCTVSGGSIRNNYYNWIRQPAGKGLEWIGRIYISGTTNSNPSLKSRVTMSIDTSKNQFSLKLSSVTAADTAIYYCAREHYVSGTSLDNWGQGTLVTVSS
VL: EIVMTQSPTTLSLSPGERATLSCRASQSVNTNYFSWYQQKPGLTPRLLIYGTSTRATGIPARFSGSGSGTDFTLTISSLQPEDFGIYYCQQDYNLPYTFGQGTYLEIK
With B3, the kon in test [16] was found to be 5.31e+06 M⁻¹ s⁻¹; in [17], 703000 M⁻¹ s⁻¹; in test [14], 752000 M⁻¹ s⁻¹. The molecule also registered an abundance of dissociation component (biphasic fit) in test [18] of 100%. The % inhibition of CD73 activity at 1 µg/ml antibody (COR-L23 cells, 4 h, LC/MS); cell TB19 x H7 in [19] was 93%. Also, the abundance of association component (biphasic fit) amounted to 55% in [20] and 45% in test [22]. Moreover, the koff in test [21] came to 0.000246 s⁻¹; in test [14], 0.000149 s⁻¹. This molecule also came in with a Kd in test [9] of 0.328 nM. In addition, the EC50 (nM) of inhibition of CD73 activity (adenosine by LC/MS) in test [12] stood at 0.27 nM. In [12], this molecule yielded a Max Inhib. (projected maximal inhibition at saturating antibody) of 95%.
